Here are results for one protein from FireProtDB (doi:10.1021/ja068849o).

The conditions of the data set: Escherichia coli (strain K12); pH 9.2; 37 °C; Urea; Fluorescence; Glycine 10 mM; reversible: Yes; whole UniProt chain shown.

B1: Outer membrane protein A wild type, P0A910 (protein)
chain: MKKTAIAIAVALAGFATVAQAAPKDNTWYTGAKLGWSQYHDTGFINNNGPTHENQLGAGAFGGYQVNPYVGFEMGYDWLGRMPYKGSVENGAYKAQGVQLTAKLGYPITDDLDIYTRLGGMVWRADTKSNVYGKNHDTGVSPVFAGGVEYAITPEIATRLEYQWTNNIGDAHTIGTRPDNGMLSLGVSYRFGQGEAAPVVAPAPAPAPEVQTKHFTLKSDVLFNFNKATLKPEGQAALDQLYSQLSNLDPKDGSVVVLGYTDRIGSDAYNQGLSERRAQSVVDYLISKGIPADKISARGMGESNPVTGNTCDNVKQRAALIDCLAPDRRVEIEVKGIKDVVTQPQA
As to B1, the denaturant m value is 2.2 kcal/mol/M, the “denaturant midpoint (higher = more stable)” value stood at 4.2 M and the unfolding free energy turned out to be 9.3 kcal/mol.
